Molecular target: T1, IGF-II receptor (Homo sapiens, UniProt P11717)
T1 construct: membrane extracts of postmortem frontal lobe tissue as the sources of receptors; from tissue; host or cells: postmortem frontal lobe tissue, homogenates pooled per Braak stage group
Assay: Saturation binding (Scatchard) of [125I]-IGF-II to postmortem frontal lobe membrane extracts by AD Braak stage
Set-up: unit not given here
Experimental: Protein concentration was determined using the bicinchoninic acid (BCA) assay (Pierce, Rockford, Ill.). Preliminary studies determined the amounts of protein and concentrations of radiolabeled ligand required to achieve 20% specific binding.
IGF-I binding assays required 25 μg protein per sample, and IGF-II receptor binding assays were performed with 10 μg protein. Equilibrium binding assays were used to assess growth factor binding levels in relation to AD stage severity. This was accomplished by determining net specific binding after incubating the protein samples at 4° C. overnight with a fixed amount of radioligand, in the presence or absence of excess cold ligand and then subtracting the values obtained for non-specific binding from those corresponding to the total binding. To measure total binding, individual protein samples were incubated in 100 μl reactions containing binding buffer (100 mM HEPES, pH 8.0, 118 mM NaCl, 1.2 mM MgSO4, 8.8 mM dextrose, 5 mM KCl, 1% bovine serum albumin) and 100 nCi/ml [^125I] […] To measure non-specific binding, replicate samples were prepared as indicated with the addition of 0.1 μM unlabeled (cold) ligand.
Saturation binding assays were performed to assess top-level (maximum) binding and binding affinity in relation to AD stage severity. Samples from 8-12 brains per Braak stage group were pooled in equal proportions and used to generate binding curves. Protein concentrations of the pooled homogenates were determined with the BCA assay. Duplicate samples were incubated in 100 μl reaction volumes containing binding buffer and 0.0031 to 1 μCi/ml of [^125I] […] To measure non-specific binding, duplicate reactions were incubated with the same concentrations of radiolabeled ligand plus 0.1 μM unlabeled (cold) competitive ligand. The data were graphed and analyzed using the GraphPad Prism 4 software to calculate the Bmax, kD (dissociation constant), and their standard deviations and 95% confidence intervals.
Reactions were performed in 1.5 ml Eppendorff tubes at 4° C. for 16 hours with gentle platform agitation. […] The samples were counted for 1 minute each in an LKB CompuGamma CS Gamma counter. Specific binding was calculated by subtracting CPM or fmol of non-specific binding, i.e., amount bound in the presence of cold ligand, from the total CPM or fmol bound (absence of unlabeled competitive ligand). After determining that the data fit a one-site rather than a two-site model, the results were analyzed using non-linear regression to calculate saturation binding (Bmax) and binding affinity (kD) with Scatchard analysis performed to measure saturation binding and binding affinity using GraphPad Prism 4 software (GraphPad Software, Inc., San Diego, Calif.).

T1 sequence (P11717 41-2491): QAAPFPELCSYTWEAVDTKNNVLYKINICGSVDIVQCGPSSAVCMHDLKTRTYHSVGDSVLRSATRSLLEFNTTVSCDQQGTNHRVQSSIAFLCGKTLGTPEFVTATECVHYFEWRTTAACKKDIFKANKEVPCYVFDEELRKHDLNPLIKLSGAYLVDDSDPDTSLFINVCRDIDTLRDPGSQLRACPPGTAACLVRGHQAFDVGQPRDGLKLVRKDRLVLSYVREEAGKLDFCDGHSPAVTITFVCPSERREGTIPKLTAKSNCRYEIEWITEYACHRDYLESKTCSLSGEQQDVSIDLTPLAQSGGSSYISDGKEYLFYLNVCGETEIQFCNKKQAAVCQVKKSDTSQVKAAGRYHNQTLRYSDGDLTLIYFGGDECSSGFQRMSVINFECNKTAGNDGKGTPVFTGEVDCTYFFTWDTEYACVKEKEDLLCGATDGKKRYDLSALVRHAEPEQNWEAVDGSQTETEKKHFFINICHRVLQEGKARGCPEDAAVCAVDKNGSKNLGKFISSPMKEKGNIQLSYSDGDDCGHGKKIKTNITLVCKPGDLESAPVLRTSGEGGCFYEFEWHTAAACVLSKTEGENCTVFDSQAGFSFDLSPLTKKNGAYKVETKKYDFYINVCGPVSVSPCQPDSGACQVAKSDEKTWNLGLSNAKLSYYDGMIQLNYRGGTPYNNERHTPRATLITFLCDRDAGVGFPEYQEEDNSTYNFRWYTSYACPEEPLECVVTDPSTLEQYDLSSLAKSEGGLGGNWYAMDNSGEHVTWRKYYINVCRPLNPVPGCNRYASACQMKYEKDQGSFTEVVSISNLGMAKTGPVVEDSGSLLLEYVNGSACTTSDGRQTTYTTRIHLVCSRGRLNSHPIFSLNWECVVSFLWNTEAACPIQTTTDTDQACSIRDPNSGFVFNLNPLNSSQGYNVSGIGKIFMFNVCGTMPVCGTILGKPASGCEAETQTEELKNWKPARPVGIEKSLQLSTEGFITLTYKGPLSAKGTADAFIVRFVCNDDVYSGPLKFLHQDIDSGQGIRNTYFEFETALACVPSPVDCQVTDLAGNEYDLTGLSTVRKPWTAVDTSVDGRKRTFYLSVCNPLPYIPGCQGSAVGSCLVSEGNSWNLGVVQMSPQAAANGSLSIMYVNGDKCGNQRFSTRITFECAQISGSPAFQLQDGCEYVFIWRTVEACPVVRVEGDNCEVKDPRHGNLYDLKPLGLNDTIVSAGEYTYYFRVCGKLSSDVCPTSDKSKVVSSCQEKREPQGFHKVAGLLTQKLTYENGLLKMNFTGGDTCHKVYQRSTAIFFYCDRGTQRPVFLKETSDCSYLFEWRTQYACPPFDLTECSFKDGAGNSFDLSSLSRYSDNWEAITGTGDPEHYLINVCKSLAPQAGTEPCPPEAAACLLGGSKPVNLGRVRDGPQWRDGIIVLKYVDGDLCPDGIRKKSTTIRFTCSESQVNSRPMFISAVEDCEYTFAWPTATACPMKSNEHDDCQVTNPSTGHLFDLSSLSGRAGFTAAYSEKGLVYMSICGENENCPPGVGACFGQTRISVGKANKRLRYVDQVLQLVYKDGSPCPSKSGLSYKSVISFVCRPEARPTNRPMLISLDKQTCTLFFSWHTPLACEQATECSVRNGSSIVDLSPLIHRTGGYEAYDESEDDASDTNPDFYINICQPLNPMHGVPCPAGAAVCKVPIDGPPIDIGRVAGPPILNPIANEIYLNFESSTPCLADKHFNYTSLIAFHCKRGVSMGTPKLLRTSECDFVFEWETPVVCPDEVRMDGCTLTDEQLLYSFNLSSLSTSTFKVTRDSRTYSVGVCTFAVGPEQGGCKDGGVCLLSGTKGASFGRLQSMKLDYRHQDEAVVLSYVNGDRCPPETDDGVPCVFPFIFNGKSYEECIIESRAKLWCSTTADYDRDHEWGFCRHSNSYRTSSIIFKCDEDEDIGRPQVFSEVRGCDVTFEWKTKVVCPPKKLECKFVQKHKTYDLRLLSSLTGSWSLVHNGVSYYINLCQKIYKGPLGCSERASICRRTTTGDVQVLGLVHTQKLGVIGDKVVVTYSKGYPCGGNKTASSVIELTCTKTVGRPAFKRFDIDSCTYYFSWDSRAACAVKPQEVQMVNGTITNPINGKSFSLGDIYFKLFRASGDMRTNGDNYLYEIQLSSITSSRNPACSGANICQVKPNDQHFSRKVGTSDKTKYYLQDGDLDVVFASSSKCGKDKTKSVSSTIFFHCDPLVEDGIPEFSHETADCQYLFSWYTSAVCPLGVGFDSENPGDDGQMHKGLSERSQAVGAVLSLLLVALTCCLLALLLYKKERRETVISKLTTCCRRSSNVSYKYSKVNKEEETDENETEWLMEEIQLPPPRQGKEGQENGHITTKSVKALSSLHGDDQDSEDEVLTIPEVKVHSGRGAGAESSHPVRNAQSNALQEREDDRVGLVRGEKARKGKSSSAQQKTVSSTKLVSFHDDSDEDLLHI

Substance: IGF-II: [125I]-labeled IGF-II used as tracer in brain membrane binding assays
- BMAX, IGF-II binding (Braak 0-1): 16.83
- BMAX, IGF-II binding (Braak 2-3): 12.53
- BMAX, IGF-II binding (Braak 4-5): 8.136
- BMAX, IGF-II binding (Braak 6): 4.713
